According to patent publication US20180291110A1 (Hoffmann-La Roche, published 2018):

Assays:
[1] = target: T1, human transferrin receptor (recombinant, for surface plasmon resonance) (human, UniProt P02786 89-760); test: SPR
T1 construct: also called huTfR; human transferrin receptor-biotinylated

[2] = target: T2, Her2 ECD (amino acids 1 to 629 of matured HER2 with C-terminal avi-tag and His-tag) (human, UniProt P04626 23-652); test: SPR, Ab captured, Her2 analyte;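 further: ProteOn XPR36 SPR, rate constants from simultaneous fit of association and dissociation sensorgrams to a 1:1 Langmuir model, buffer-channel referenced, KD taken as koff/kon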
T2 construct: also called purified Her2

T1 sequence (P02786 89-760 limits assumed): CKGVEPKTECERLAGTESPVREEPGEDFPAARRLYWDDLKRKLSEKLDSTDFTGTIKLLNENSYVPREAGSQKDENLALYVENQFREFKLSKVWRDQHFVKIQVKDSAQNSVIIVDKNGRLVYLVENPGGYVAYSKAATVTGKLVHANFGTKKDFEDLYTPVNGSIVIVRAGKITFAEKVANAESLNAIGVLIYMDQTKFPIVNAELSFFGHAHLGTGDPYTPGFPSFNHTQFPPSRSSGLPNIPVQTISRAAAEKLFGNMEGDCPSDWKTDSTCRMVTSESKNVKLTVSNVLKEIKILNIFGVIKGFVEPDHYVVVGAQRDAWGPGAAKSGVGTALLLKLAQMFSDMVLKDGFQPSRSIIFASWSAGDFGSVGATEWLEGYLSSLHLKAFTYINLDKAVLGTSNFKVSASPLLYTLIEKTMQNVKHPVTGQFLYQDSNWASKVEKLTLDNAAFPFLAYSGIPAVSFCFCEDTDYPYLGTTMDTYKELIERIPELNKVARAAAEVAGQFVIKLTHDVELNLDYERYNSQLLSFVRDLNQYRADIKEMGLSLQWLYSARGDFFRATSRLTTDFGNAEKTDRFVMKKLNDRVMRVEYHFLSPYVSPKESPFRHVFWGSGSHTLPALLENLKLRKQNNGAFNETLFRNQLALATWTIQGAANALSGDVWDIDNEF

koff [1]	Kd [2]	koff [2]	kon [2]	Binder
0.000136 s⁻¹				4/94 murine VH / murine VL (antibody, V domains shown, 0 (mu) read as the murine parental domains of clone 4/94; also called 0 (mu) x 0 (mu)) VH: EVQLQQSGAVLVKPGASVKLSCPASGFNIKDTYIHWVIQRPEQGLEWIGRIDPANGDTKCDPKFQVKATITADTSSNTAYLQLSSLTSEDTAVYFCVRDYLYPYYFDFWGQGTTLTVSS VL: KIVMTQSPKSMSMSVGERVTLNCRASESVDTYVSWYQQKPEQSPELLIYGASNRYTGVPDRFTGSGSATDFTLTISSVQAEDLADYYCGQTYNYPLTFGAGTKLELKR
0.000156 s⁻¹				4/94 murine VH / SEQ ID NO 207 (antibody, V domains shown) VH: EVQLQQSGAVLVKPGASVKLSCPASGFNIKDTYIHWVIQRPEQGLEWIGRIDPANGDTKCDPKFQVKATITADTSSNTAYLQLSSLTSEDTAVYFCVRDYLYPYYFDFWGQGTTLTVSS VL: KIVLTQSPGTLSLSPGERATLSCRASESVDTYVSWYQQKPGQAPRLLIYGASNRYTGVPDRFSGSGSGTDFTLTISRLEPEDFADYYCGQTYNYPLTFGQGTKLEI
0.000339 s⁻¹				4/94 SEQ ID NO 196 / murine VL (antibody, V domains shown) VH: QVQLVQSGAEVKKPGASVKVSCKASGFNIKDTYIHWVIQAPGQGLEWMGRIDPANGDTKSDPKFQGRVTITADTSTSTVYMELSSLRSEDTAVYYCVRDYLYPYYFDFWGQGTTVTVSS VL: KIVMTQSPKSMSMSVGERVTLNCRASESVDTYVSWYQQKPEQSPELLIYGASNRYTGVPDRFTGSGSATDFTLTISSVQAEDLADYYCGQTYNYPLTFGAGTKLELKR
0.000137 s⁻¹				4/94 murine VH / SEQ ID NO 201 (antibody, V domains shown) VH: EVQLQQSGAVLVKPGASVKLSCPASGFNIKDTYIHWVIQRPEQGLEWIGRIDPANGDTKCDPKFQVKATITADTSSNTAYLQLSSLTSEDTAVYFCVRDYLYPYYFDFWGQGTTLTVSS VL: KIQMTQSPSSLSASVGDRVTITCRASESVDTYVSWYQQKPGKAPKLLIYGASNRYTGVPSRFSGSGSGTDFTLTISSLQPEDFADYYCGQTYNYPLTFGQGTKLEI
0.000364 s⁻¹				4/94 SEQ ID NO 195 / murine VL (antibody, V domains shown) VH: QVQLVQSGAEVKKPGASVKVSCKASGFNIKDTYIHWVIQAPGQGLEWMGRIDPANGDTKSAPKFQVRVTITADTSTSTVYMELSSLRSEDTAVYYCVRDYLYPYYFDFWGQGTTVTVSS VL: KIVMTQSPKSMSMSVGERVTLNCRASESVDTYVSWYQQKPEQSPELLIYGASNRYTGVPDRFTGSGSATDFTLTISSVQAEDLADYYCGQTYNYPLTFGAGTKLELKR
0.000542 s⁻¹				4/94 SEQ ID NO 197 / murine VL (antibody, V domains shown) VH: QVQLVQSGAEVKKPGSSVKVSCKASGFNIKDTYIHWVIQAPGQGLEWMGRIDPANGDTKSDPKFQGRVTITADESTSTAYMELSSLRSEDTAVYYCVRDYLYPYYFDFWGQGTTVTVSS VL: KIVMTQSPKSMSMSVGERVTLNCRASESVDTYVSWYQQKPEQSPELLIYGASNRYTGVPDRFTGSGSATDFTLTISSVQAEDLADYYCGQTYNYPLTFGAGTKLELKR
0.00037 s⁻¹				4/94 SEQ ID NO 194 / murine VL (antibody, V domains shown) VH: QVQLVQSGAEVKKPGASVKVSCKASGFNIKDTYIHWVIQAPGQGLEWMGRIDPANGDTKSDPKFQVRVTITADTSTSTVYMELSSLRSEDTAVYYCVRDYLYPYYFDFWGQGTTVTVSS VL: KIVMTQSPKSMSMSVGERVTLNCRASESVDTYVSWYQQKPEQSPELLIYGASNRYTGVPDRFTGSGSATDFTLTISSVQAEDLADYYCGQTYNYPLTFGAGTKLELKR
0.000148 s⁻¹				4/94 murine VH / SEQ ID NO 208 (antibody, V domains shown) VH: EVQLQQSGAVLVKPGASVKLSCPASGFNIKDTYIHWVIQRPEQGLEWIGRIDPANGDTKCDPKFQVKATITADTSSNTAYLQLSSLTSEDTAVYFCVRDYLYPYYFDFWGQGTTLTVSS VL: EIVLTQSPGTLSLSPGERATLSCRASESVDTYVSWYQQKPGQAPRLLIYGASNRYTGVPDRFSGSGSGTDFTLTISRLEPEDFADYYCGQTYNYPLTFGQGTKLEI
0.000177 s⁻¹				4/94 murine VH / SEQ ID NO 209 (antibody, V domains shown) VH: EVQLQQSGAVLVKPGASVKLSCPASGFNIKDTYIHWVIQRPEQGLEWIGRIDPANGDTKCDPKFQVKATITADTSSNTAYLQLSSLTSEDTAVYFCVRDYLYPYYFDFWGQGTTLTVSS VL: KIVLTQSPGTLSLSPGERATLSCRASESVDTYVSWYQQKPGQAPRLLIYGASNRYTGIPDRFSGSGSGTDFTLTISRLEPEDFADYYCGQTYNYPLTFGQGTKLEI
	2.82 nM	0.00097 s⁻¹	344000 M⁻¹ s⁻¹	Pertuzumab HC x Pertuzumab (Tras.L3) P96Y LC (antibody, V domains shown) VH: EVQLVESGGGLVQPGGSLRLSCAASGFTFTDYTMDWVRQAPGKGLEWVADVNPNSGGSIYNQRFKGRFTLSVDRSKNTLYLQMNSLRAEDTAVYYCARNLGPSFYFDYWGQGTLVTVSS VL: DIQMTQSPSSLSASVGDRVTITCKASQDVSIGVAWYQQKPGKAPKLLIYSASYRYTGVPSRFSGSGSGTDFTLTISSLQPEDFATYYCQQHYTTPYTFGQGTKVEIK
	66.8 nM	0.0252 s⁻¹	377000 M⁻¹ s⁻¹	Trastuzumab HC x Pertuzumab (Tras.L3) K24R LC (antibody, V domains shown) VH: not shown VL: DIQMTQSPSSLSASVGDRVTITCRASQDVSIGVAWYQQKPGKAPKLLIYSASYRYTGVPSRFSGSGSGTDFTLTISSLQPEDFATYYCQQHYTTPPTFGQGTKVEIK
	44.9 nM	0.0171 s⁻¹	381000 M⁻¹ s⁻¹	Trastuzumab HC x Pertuzumab (Tras.L3) Y53F LC (antibody, V domains shown) VH: not shown VL: DIQMTQSPSSLSASVGDRVTITCKASQDVSIGVAWYQQKPGKAPKLLIYSASFRYTGVPSRFSGSGSGTDFTLTISSLQPEDFATYYCQQHYTTPPTFGQGTKVEIK
	49.4 nM	0.0232 s⁻¹	470000 M⁻¹ s⁻¹	Trastuzumab HC x Pertuzumab (Tras.L3) T56S LC (antibody, V domains shown) VH: not shown VL: DIQMTQSPSSLSASVGDRVTITCKASQDVSIGVAWYQQKPGKAPKLLIYSASYRYSGVPSRFSGSGSGTDFTLTISSLQPEDFATYYCQQHYTTPPTFGQGTKVEIK
	5.52 nM	0.00245 s⁻¹	443000 M⁻¹ s⁻¹	Pertuzumab HC x Pertuzumab (Tras.L3) T56S LC (antibody, V domains shown) VH: EVQLVESGGGLVQPGGSLRLSCAASGFTFTDYTMDWVRQAPGKGLEWVADVNPNSGGSIYNQRFKGRFTLSVDRSKNTLYLQMNSLRAEDTAVYYCARNLGPSFYFDYWGQGTLVTVSS VL: DIQMTQSPSSLSASVGDRVTITCKASQDVSIGVAWYQQKPGKAPKLLIYSASYRYSGVPSRFSGSGSGTDFTLTISSLQPEDFATYYCQQHYTTPPTFGQGTKVEIK
	3.4 nM	0.0018 s⁻¹	530000 M⁻¹ s⁻¹	Pertuzumab HC x Pertuzumab (Tras.L3) S30N LC (antibody, V domains shown) VH: EVQLVESGGGLVQPGGSLRLSCAASGFTFTDYTMDWVRQAPGKGLEWVADVNPNSGGSIYNQRFKGRFTLSVDRSKNTLYLQMNSLRAEDTAVYYCARNLGPSFYFDYWGQGTLVTVSS VL: DIQMTQSPSSLSASVGDRVTITCKASQDVNIGVAWYQQKPGKAPKLLIYSASYRYTGVPSRFSGSGSGTDFTLTISSLQPEDFATYYCQQHYTTPPTFGQGTKVEIK
	0.782 nM	0.00063 s⁻¹	805000 M⁻¹ s⁻¹	Pertuzumab HC x Pertuzumab (Tras.L3) T94Y LC (antibody, V domains shown) VH: EVQLVESGGGLVQPGGSLRLSCAASGFTFTDYTMDWVRQAPGKGLEWVADVNPNSGGSIYNQRFKGRFTLSVDRSKNTLYLQMNSLRAEDTAVYYCARNLGPSFYFDYWGQGTLVTVSS VL: DIQMTQSPSSLSASVGDRVTITCKASQDVSIGVAWYQQKPGKAPKLLIYSASYRYTGVPSRFSGSGSGTDFTLTISSLQPEDFATYYCQQHYTYPPTFGQGTKVEIK
	71.5 nM	0.0297 s⁻¹	416000 M⁻¹ s⁻¹	Trastuzumab HC x Pertuzumab (Tras.L3) R54L LC (antibody, V domains shown) VH: not shown VL: DIQMTQSPSSLSASVGDRVTITCKASQDVSIGVAWYQQKPGKAPKLLIYSASYLYTGVPSRFSGSGSGTDFTLTISSLQPEDFATYYCQQHYTTPPTFGQGTKVEIK
	28 nM	0.0116 s⁻¹	413000 M⁻¹ s⁻¹	Trastuzumab HC x Pertuzumab (Tras.L3) I31V LC (antibody, V domains shown) VH: not shown VL: DIQMTQSPSSLSASVGDRVTITCKASQDVSVGVAWYQQKPGKAPKLLIYSASYRYTGVPSRFSGSGSGTDFTLTISSLQPEDFATYYCQQHYTTPPTFGQGTKVEIK
	10.9 nM	0.00558 s⁻¹	514000 M⁻¹ s⁻¹	Trastuzumab HC x Pertuzumab (Tras.L3) G66R LC (antibody, V domains shown) VH: not shown VL: DIQMTQSPSSLSASVGDRVTITCKASQDVSIGVAWYQQKPGKAPKLLIYSASYRYTGVPSRFSGSRSGTDFTLTISSLQPEDFATYYCQQHYTTPPTFGQGTKVEIK
	64.6 nM	0.0256 s⁻¹	396000 M⁻¹ s⁻¹	Trastuzumab HC x Pertuzumab (Tras.L3) S30N LC (antibody, V domains shown) VH: not shown VL: DIQMTQSPSSLSASVGDRVTITCKASQDVNIGVAWYQQKPGKAPKLLIYSASYRYTGVPSRFSGSGSGTDFTLTISSLQPEDFATYYCQQHYTTPPTFGQGTKVEIK
	7.21 nM	0.00341 s⁻¹	473000 M⁻¹ s⁻¹	Trastuzumab HC x Pertuzumab (Tras.L3) I31T LC (antibody, V domains shown) VH: not shown VL: DIQMTQSPSSLSASVGDRVTITCKASQDVSTGVAWYQQKPGKAPKLLIYSASYRYTGVPSRFSGSGSGTDFTLTISSLQPEDFATYYCQQHYTTPPTFGQGTKVEIK
	3.97 nM	0.00268 s⁻¹	675000 M⁻¹ s⁻¹	Trastuzumab HC x Pertuzumab (Tras.L3) G32A LC (antibody, V domains shown) VH: not shown VL: DIQMTQSPSSLSASVGDRVTITCKASQDVSIAVAWYQQKPGKAPKLLIYSASYRYTGVPSRFSGSGSGTDFTLTISSLQPEDFATYYCQQHYTTPPTFGQGTKVEIK
	4.87 nM	0.00226 s⁻¹	464000 M⁻¹ s⁻¹	Pertuzumab HC x Pertuzumab (Tras.L3) R54L LC (antibody, V domains shown) VH: EVQLVESGGGLVQPGGSLRLSCAASGFTFTDYTMDWVRQAPGKGLEWVADVNPNSGGSIYNQRFKGRFTLSVDRSKNTLYLQMNSLRAEDTAVYYCARNLGPSFYFDYWGQGTLVTVSS VL: DIQMTQSPSSLSASVGDRVTITCKASQDVSIGVAWYQQKPGKAPKLLIYSASYLYTGVPSRFSGSGSGTDFTLTISSLQPEDFATYYCQQHYTTPPTFGQGTKVEIK
	8.03 nM	0.00254 s⁻¹	316000 M⁻¹ s⁻¹	Pertuzumab HC x Pertuzumab (Tras.L3) Y53F LC (antibody, V domains shown) VH: EVQLVESGGGLVQPGGSLRLSCAASGFTFTDYTMDWVRQAPGKGLEWVADVNPNSGGSIYNQRFKGRFTLSVDRSKNTLYLQMNSLRAEDTAVYYCARNLGPSFYFDYWGQGTLVTVSS VL: DIQMTQSPSSLSASVGDRVTITCKASQDVSIGVAWYQQKPGKAPKLLIYSASFRYTGVPSRFSGSGSGTDFTLTISSLQPEDFATYYCQQHYTTPPTFGQGTKVEIK
